Biological target: Chicken skeletal muscle actin, assembled into filaments (F-actin) (chicken) (UniProt P68139)
Assay: TIRF microscopy of labeled protein on actin filaments; four-color TIRFM; 1.5 μM Mg-ATP actin (15% Alexa 488-labeled), 50 nM Fim1 (Alexa 405-labeled), 2.5 μM Cdc8 (TMR-labeled), without or with 500 nM Ain1 (Cy5-labeled); fluorescence on two-filament bundles; room temperature

## acetylation mimic tropomyosin AlaSer-Cdc8, fluorescently labeled (TMR or Cy5) (natural protein)
  fold of Cdc8 on F-actin bundles with Fim1 and Ain1 against with Fim1 alone: > 100 fold

From article PMC6557641
